Data published in publication PMC2921712.

What was measured:
microtubules = assay: co-sedimentation
[1] = target: Xenopus CENP-E^1-473 tagged with TagRFP-T (CENP-E^1-473-RFP) (Xenopus laevis); assay: single-molecule TIRF microscopy with photobleaching steps
[2] = target: Oregon Green 488-labeled GMPCPP microtubules; assay: single-molecule TIRF microscopy
Chain of Oregon Green 488-labeled GMPCPP microtubules (P02550 whole entry, chain 1 of 2): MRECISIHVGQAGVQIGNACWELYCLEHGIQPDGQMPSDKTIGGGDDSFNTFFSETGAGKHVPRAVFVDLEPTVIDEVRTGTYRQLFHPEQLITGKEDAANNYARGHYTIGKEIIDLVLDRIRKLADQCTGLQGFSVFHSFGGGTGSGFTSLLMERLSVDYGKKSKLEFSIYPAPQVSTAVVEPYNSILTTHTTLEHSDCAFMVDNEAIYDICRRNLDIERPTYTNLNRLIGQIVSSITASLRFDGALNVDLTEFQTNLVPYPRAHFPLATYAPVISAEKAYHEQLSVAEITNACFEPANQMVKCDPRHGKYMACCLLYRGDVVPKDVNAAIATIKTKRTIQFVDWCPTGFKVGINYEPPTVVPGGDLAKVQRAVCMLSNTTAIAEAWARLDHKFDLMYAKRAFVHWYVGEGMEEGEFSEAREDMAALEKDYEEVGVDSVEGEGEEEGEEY
Chain of Oregon Green 488-labeled GMPCPP microtubules (P02554 whole entry, chain 2 of 2, further chain): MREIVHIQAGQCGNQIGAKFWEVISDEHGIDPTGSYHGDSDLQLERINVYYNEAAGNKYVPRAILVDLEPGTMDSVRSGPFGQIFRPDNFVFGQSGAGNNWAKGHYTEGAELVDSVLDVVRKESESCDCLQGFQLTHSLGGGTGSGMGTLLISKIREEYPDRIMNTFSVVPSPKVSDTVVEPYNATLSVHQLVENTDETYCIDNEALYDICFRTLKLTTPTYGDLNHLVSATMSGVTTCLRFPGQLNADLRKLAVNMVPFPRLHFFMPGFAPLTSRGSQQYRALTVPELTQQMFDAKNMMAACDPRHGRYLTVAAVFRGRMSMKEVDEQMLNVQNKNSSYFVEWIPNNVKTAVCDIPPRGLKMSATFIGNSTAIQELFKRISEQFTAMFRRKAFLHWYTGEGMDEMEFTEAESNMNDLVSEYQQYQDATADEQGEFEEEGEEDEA

Chain of microtubules (P02550 whole entry, chain 1 of 2, the tested form may be a part): as the sequence (P02550 whole entry, chain 1 of 2) above
Chain of microtubules (P02554 whole entry, chain 2 of 2, further chain, the tested form may be a part): as the sequence (P02554 whole entry, chain 2 of 2, further chain) above

Substance	Kd (microtubules)	stoichiometry N [1]	mean duration of binding (t) [2]	time bound at the microtubule end [2]
T424A Xenopus CENP-E^1-473 incubated with Aurora A (domain or fragment)	3400 nM	–	–	–
Xenopus CENP-E motor fragment CENP-E^1-473 (domain or fragment)	2000 nM	–	–	–
Xenopus CENP-E^1-473-RFP phosphorylated by Aurora A (domain or fragment)	–	–	12 s	–

Second part, the substance after the results:

Kd (microtubules)	stoichiometry N [1]	mean duration of binding (t) [2]	time bound at the microtubule end [2]	Substance
3000 nM	–	–	–	Xenopus CENP-E^1-473 phosphorylated by Aurora A (domain or fragment)
–	2	17 s	5.8 s	Xenopus CENP-E^1-473 tagged with TagRFP-T (CENP-E^1-473-RFP) (domain or fragment)
